{
  "source": "patent US20220372105A1",
  "about": "(POSEIDA THERAPEUTICS, published 2022)",
  "binders": {"B1": {"name": "CD2 extracellular domain with D111H mutation (\"CD2 ECD (D111H)\") (receptor)", "chain": "KEITNALETWGALGQDINLDIPSFQMSDDIDDIKWEKTSDKKKIAQFRKEKETFKEKDTYKLFKNGTLKIKHLKTDDQDIYKVSIYHTKGKNVLEKIFDLKIQERVSKPKISWTCINTTLTCEVMNGTDPELNLYQDGKHLKLSQRVITHKWTTSLSAKFKCTAGNKVSKESSVEPVSCPEKGLD", "notes": "also called CSR CD2z-D111H mutant; mutant CSR"}},
  "target": "T1, CD58 (UniProt P19256 29-215, limits assumed)",
  "T1 construct": "also called naturally occurring CD58",
  "T1 sequence (looked up)": "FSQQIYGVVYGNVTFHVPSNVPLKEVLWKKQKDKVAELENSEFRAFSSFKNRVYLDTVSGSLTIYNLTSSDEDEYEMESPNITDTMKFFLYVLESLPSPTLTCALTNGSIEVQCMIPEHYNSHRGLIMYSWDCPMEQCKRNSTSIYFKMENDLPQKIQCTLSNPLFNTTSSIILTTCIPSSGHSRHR",
  "assay": "not described (screen of a CSR mutant panel)",
  "data": [
    {"binder": "B1", "values": [
      {"measurement": "binding result", "value": "no binding"}
    ]}
  ]
}
